From publication PMC5863359, “A novel acetyl xylan esterase enabling complete deacetylation of substituted xylans” (Biotechnology for Biofuels, 2018)

Legend:
[1] = substrate: CC(=O)Oc1ccc2c(C)cc(=O)oc2c1; experiment: spectrophotometric hydrolysis assay (A354), Michaelis-Menten fit; assay type: biochemical, Flavobacterium johnsoniae; conditions: 50 mM HEPES pH 8.0, 10% DMSO, 30 °C
From the text: spectrophotometric hydrolysis assay (A354), Michaelis-Menten fit on FjoAcXE

[2] = substrate: CC(=O)Oc1ccc([N+](=O)[O-])cc1; experiment: spectrophotometric hydrolysis assay (A410), Michaelis-Menten fit; assay type: biochemical, Flavobacterium johnsoniae; conditions: 50 mM HEPES pH 8.0, 30 °C
From the text: spectrophotometric hydrolysis assay (A410), Michaelis-Menten fit on FjoAcXE

B1: FjoAcXE (Flavobacterium johnsoniae UW101) (protein)
chain: GCTSNKALIKTGDKKEDQNWTGTWATAQMLVEPKNMPPEPGLAQNTLRQIIKVSLGGKQIRLRFSNLFSDQPAVLKSVSVANVTEAPAVDIKTQKILSFKGSPQVTLGADEVVYSDAFDFELQPGQLLAITIHYGEISSNVSGHPGSRTTSYILQGDHINNESFAGAVKTDHWYSIMGVDISSVKNESNVVCLGNSIIDGRGSGTNKQNRWTDILASRLNANKNTAHIGVLNLGIGGNCVVRGGLGPTALNRFDRDVLSQSGTKWLIILEGINDIGGIRKAEDASVTAKEIIEGYKVMIDKAHAKGIKVFGGTILPFEKSFYDAPFKQDARDIVNEWIRTKGNFDAVIDFDKAMASDVGSKTILPDMHDNDFLHPNEKGYQRMGETVDLDLFQ
notes: predicted signal peptide (residues 1-21) removed; N-terminal His6-tag (p15TV-L); codon-optimized synthetic gene, expressed in E. coli BL21(DE3) codon plus
Q: For B1, which Km [1] is on record?
A: Its Km is 800 ± 100 µM.

Q: And the kcat [1]?
A: The kcat was 95.1 ± 4.4 s⁻¹.

Q: What about the kcat/Km [1] of the same protein?
A: Its kcat/Km is 115000 M⁻¹ s⁻¹.

Q: And the Km [2]?
A: Its Km is 900 ± 100 µM.

Q: What about the kcat [2] of the same protein?
A: Its kcat is 121 ± 3 s⁻¹.

Q: And the kcat/Km [2]?
A: Its kcat/Km is 128000 M⁻¹ s⁻¹.
